This note sets out measurements from patent US20220127628A1.

The target in the assay is recombinant NetB (wild type NetB) toxin of C. perfringens (Clostridium perfringens). Put plainly: cell-based or functional assay.

“And” between values parts separate entries of the source, which are not always exact repeats. Equal entries are not always repeated.

B1: VHH ENB-1D11 (VHH)
VHH: EVQLVESGGGLVQTGGSLRLSCTASGTIDMTYGLIWYRQAPGKERELVASIRRDGRTNYADSVKGRFTISIDNAKNSIHLQMNSLKPDDTARYYCNSPYHALWGQGTQVTVSS
On to B1, for which the lowest VHH concentration neutralizing NetB haemolysis is 1.25 µM and 0.625 µM.

B2: VHH ENB-1A4 (VHH)
VHH: EVQLVESGGGLVQAGGSLRLSCAASGSIFSTNVMGWYRQAPGKQREFVAGITIGGTARYPDSVKGRFTISRDNTQNTVYLQMNNLKPEDTAVYYCNAVLPSDQRRWSWGQGTQVTVSS
As for B2, the lowest VHH concentration neutralizing NetB haemolysis is 1.25 µM and 0.625 µM.
